{
  "source": "paper PMC10850085",
  "about": "(Nature Communications, 2024)",
  "parents": {"B1": {"name": "monomeric version of the romiplostim peptide [modified: N-terminal biotin moiety; N-terminal biotin moiety] / murine TpoR ectodomain, monomeric (TpoR_(1-479)) [modified: N-linked glycans at N117, N178, N349; tryptophan mannosylation (W465, … (parent complex)", "chain 1": "IEGPTLRQWLAARA", "chain 2": "QDVFLLALGTEPLNCFSQTFEDLTCFWDEEEAAPSGTYQLLYAYRGEKPRACPLYSQSVPTFGTRYVCQFPAQDEVRLFFPLHLWVKNVSLNQTLIQRVLFVDSVGLPAPPRVIKARGGSQPGELQIHWEAPAPEISDFLRHELRYGPTDSSNATAPSVIQLLSTETCCPTLWMPNPVPVLDQPPCVHPTASQPHGPAPFLTVKGGSCLVSGLQAGKSYWLQLRSQPDGVSLRGSWGPWSFPVTVDLPGDAVTIGLQCFTLDLKMVTCQWQQQDRTSSQGFFRHSRTRCCPTDRDPTWEKCEEEEPRPGSQPALVSRCHFKSRNDSVIHILVEVTTAQGAVHSYLGSPFWIHQAVLLPTPSLHWREVSSGRLELEWQHQSSWAAQETCYQLRYTGEGREDWKVLEPSLGARGGTLELRPRARYSLQLRARLNGPTYQGPWSAWSPPARVSTGSE"}, "B2": {"name": "murine TpoR ectodomain, monomeric (TpoR_(1-479)) [modified: N-linked glycans at N117, N178, N349; tryptophan mannosylation (W465, W468); N-linked glycans at N117, N178, N349; tryptophan mannosylation (W465, W468)] [mouse] / peptide version … (parent complex)", "chain 1": "B1 chain 2", "chain 2": "IEGPTLRQWLAARAGGIEGPTLRQWLAARA"}},
  "data": [
    {"variants_of": "B1", "assay": "SPR; peak response of the last injection (100 nM TpoR, top concentration of a two-fold dilution series) over immobilised peptide; read off a plot", "units": {"response": "RU"}, "values": [
      {"variant": "chain 1 A12L", "response": "~36"}
    ]},
    {"variants_of": "B2", "assay": "SPR; peak response of the last (highest concentration) injection over immobilised romiplostim peptide; concentration not stated for this panel; read off a plot", "units": {"response": "RU"}, "values": [
      {"variant": "chain 1 F80A", "response": "~220"}
    ]}
  ]
}
